Reference: IntAct's records for PubMed 11711533

B1: Tyrosine-protein phosphatase non-receptor type 12 (Mus musculus), P35831 (parent)
chain: MEQVEILRRFIQRVQAMKSPDHNGEDNFARDFMRLRRLSTKYRTEKIYPTATGEKEENVKKNRYKDILPFDHSRVKLTLKTPSQDSDYINANFIKGVYGPKAYVATQGPLANTVIDFWRMIWEYNVVIIVMACREFEMGRKKCERYWPLYGEDPITFAPFKISCENEQARTDYFIRTLLLEFQNESRRLYQFHYVNWPDHDVPSSFDSILDMISLMRKYQEHEDVPICIHCSAGCGRTGAICAIDYTWNLLKAGKIPEEFNVFNLIQEMRTQRHSAVQTKEQYELVHRAIAQLFEKQLQLYEIHGAQKIADGNEITTGTMVSSIDSEKQDSPPPKPPRTRSCLVEGDAKEEILQPPEPHPVPPILTPSPPSAFPTVTTVWQDSDRYHPKPVLHMASPEQHPADLNRSYDKSADPMGKSESAIEHIDKKLERNLSFEIKKVPLQEGPKSFDGNTLLNRGHAIKIKSASSSVVDRTSKPQELSAGALKVDDVSQNSCADCSAAHSHRAAESSEESQSNSHTPPRPDCLPLDKKGHVTWSLHGPENATPVPDSPDGKSPDNHSQTLKTVSSTPNSTAEEEAHDLTEHHNSSPLLKAPLSFTNPLHSDDSDSDGGSSDGAVTRNKTSISTASATVSPASSAESACTRRVLPMSIARQEVAGTPHSGAEKDADVSEESPPPLPERTPESFVLADMPVRPEWHELPNQEWSEQRESEGLTTSGNEKHDAGGIHTEASADSPPAFSDKKDQITKSPAEVTDIGFGNRCGKPKGPREPPSEWT
B2: Proline-serine-threonine phosphatase-interacting protein 1 (Mus musculus), P97814 (parent)
chain: MMAQLQFRDAFWCRDFTAHTGYEVLLQRLLDGRKMCKDVEELLRQRAQAEERYGKELVQIARKAGGQTEMNSLRTSFDSLKQQTENVGSAHIQLALALREELRSLEEFRERQKEQRKKYEAIMDRVQKSKLSLYKKTMESKKAYDQKCRDADDAEQAFERVSANGHQKQVEKSQNKAKQCKESATEAERVYRQNIEQLERARTEWEQEHRTTCEAFQLQEFDRLTILRNALWVHCNQLSMQCVKDDELYEEVRLTLEGCDVEGDINGFIQSKSTGREPPAPVPYQNYYDREVTPLIGSPSIQPSCGVIKRFSGLLHGSPKTTPSAPAASTETLTPTPERNELVYASIEVQATQGNLNSSAQDYRALYDYTAQNSDELDISAGDILAVILEGEDGWWTVERNGQRGFVPGSYLEKL
partner: B1 chain

Variants of: B1
Details: with ppip1_mouse Pstpip1, P97814

Row | Variant | effect of a mutation on the interaction
1 | C231S | decreasing interaction

Variants of: B2
Details: with ptn12_mouse Ptpn12, P35831

Row | Variant | effect of a mutation on the interaction
2 | Y344F | disrupting interaction
